In publication PMC7299334, “Molecular basis of force-from-lipids gating in the mechanosensitive channel MscS” (eLife, 2019):

B1: E. coli small-conductance mechanosensitive channel MscS with N-terminal 6xHis tag (natural protein, UniProt P0C0S1 1-286, looked up)
chain: MEDLNVVDSINGAGSWLVANQALLLSYAVNIVAALAIIIVGLIIARMISNAVNRLMISRKIDATVADFLSALVRYGIIAFTLIAALGRVGVQTASVIAVLGAAGLAVGLALQGSLSNLAAGVLLVMFRPFRAGEYVDLGGVAGTVLSVQIFSTTMRTADGKIIVIPNGKIIAGNIINFSREPVRRNEFIIGVAYDSDIDQVKQILTNIIQSEDRILKDREMTVRLNELGASSINFVVRVWSNSGDLQNVYWDVLERIKREFDAAGISFPYPQMDVNFKRVKEDKAA
notes: Small-conductance mechanosensitive channel MscS, E. coli, full length; also called 6xHis-MscS-ND; MscS-ND; not shown: His6, N-terminal, kept
B2: MscS-Cryst (Δ2–26 MscS) (natural protein, E. coli, UniProt P0C0S1 1-286, looked up)
chain: MYAVNIVAALAIIIVGLIIARMISNAVNRLMISRKIDATVADFLSALVRYGIIAFTLIAALGRVGVQTASVIAVLGAAGLAVGLALQGSLSNLAAGVLLVMFRPFRAGEYVDLGGVAGTVLSVQIFSTTMRTADGKIIVIPNGKIIAGNIINFSREPVRRNEFIIGVAYDSDIDQVKQILTNIIQSEDRILKDREMTVRLNELGASSINFVVRVWSNSGDLQNVYWDVLERIKREFDAAGISFPYPQMDVNFKRVKEDKAA
notes: Small-conductance mechanosensitive channel MscS, E. coli, lacking the N-terminal anchor domain (residues 2-26 removed); The tag is surmised from the vector and from the statement that the purification was the same; also called MscS ∆2–27; MscS ∆1–27; source: E. coli MJF465 (pQE70), purified as the wild type, reconstituted in MSP1 E3D1 nanodiscs (POPC:POPG)

Biological target: the molecule itself
Experiment: cryo-EM structure; single particle cryo-EM of MscS in MSP1 E3D1 nanodiscs, POPC:POPG 4:1; 0.01% fluorinated octyl maltoside added; C7 symmetry in final refinement (the His-tagged sample also processed without symmetry, C1)

Protein | stoichiometry N | binding result
B1 | 7 | –
B2 | – | binds
